# Measured values reported in paper PMC12719470 (2025).
# T1: TNFR2-His protein (UniProt P20333 23-461)
# T1 chain: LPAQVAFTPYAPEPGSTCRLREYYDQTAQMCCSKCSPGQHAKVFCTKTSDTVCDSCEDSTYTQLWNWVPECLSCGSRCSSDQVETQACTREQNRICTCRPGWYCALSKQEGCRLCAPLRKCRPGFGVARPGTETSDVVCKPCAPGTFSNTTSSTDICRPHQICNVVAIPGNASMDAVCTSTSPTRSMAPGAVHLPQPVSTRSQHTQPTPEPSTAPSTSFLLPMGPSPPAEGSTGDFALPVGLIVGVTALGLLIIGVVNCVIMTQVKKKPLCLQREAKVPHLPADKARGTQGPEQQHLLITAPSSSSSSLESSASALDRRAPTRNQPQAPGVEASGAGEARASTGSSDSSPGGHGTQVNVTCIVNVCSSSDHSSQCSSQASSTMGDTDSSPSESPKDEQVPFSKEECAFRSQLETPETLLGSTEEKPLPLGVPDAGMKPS
# B1: Nanobody-161 IgG1 Y105G (Fc fusion)
# chain: EVQLVESGGGLVQPGGSLRLSCAASGSIRFINDMGWYRQAPGKGLELVAAIGRGGGSTNYADSVKGRFTISRDNAKNTLYLQMNSLRAEDTAVYYCHAEISQLGGAFRDYWGQGTLVTVSS
# Target: T1, TNFR2-His protein
# Assay: BLI
binder,measurement,value
B1,Kd,214 µM
